Measured values taken from article PMC2756588.

T1: Myo5, Q04439
T1 sequence (Q04439 1072-1160, looked up): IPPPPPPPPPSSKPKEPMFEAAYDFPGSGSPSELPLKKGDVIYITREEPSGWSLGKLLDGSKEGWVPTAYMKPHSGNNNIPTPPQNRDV

T2: Nbp2, Q12163
T2 sequence (Q12163 103-180, looked up): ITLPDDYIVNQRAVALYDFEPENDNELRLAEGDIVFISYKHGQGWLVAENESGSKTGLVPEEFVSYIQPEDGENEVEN

T3: Cyk3, Q07533
T3 sequence (Q07533 1-83, looked up): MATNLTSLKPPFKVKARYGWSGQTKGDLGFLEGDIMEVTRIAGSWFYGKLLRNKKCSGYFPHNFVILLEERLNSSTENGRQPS

T4: Bzz1-1, P38822
T4 sequence (P38822 478-572, looked up): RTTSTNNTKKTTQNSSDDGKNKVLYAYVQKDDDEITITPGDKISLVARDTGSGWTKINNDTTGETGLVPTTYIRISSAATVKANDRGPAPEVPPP

T5: Pex13, P80667
T5 sequence (P80667 295-386, looked up): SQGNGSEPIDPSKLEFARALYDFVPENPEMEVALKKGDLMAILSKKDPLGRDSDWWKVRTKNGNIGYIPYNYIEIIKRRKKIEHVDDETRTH

T6: Bud14, P27637
T6 sequence (P27637 247-328, looked up): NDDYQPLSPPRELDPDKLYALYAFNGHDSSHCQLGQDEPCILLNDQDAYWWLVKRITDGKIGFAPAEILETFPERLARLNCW

T7: Sla1-3, P32790
T7 sequence (P32790 344-424, looked up): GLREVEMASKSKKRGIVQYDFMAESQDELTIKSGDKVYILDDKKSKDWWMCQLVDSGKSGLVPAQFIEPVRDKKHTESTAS

T8: Lsb1, P53281
T8 sequence (P53281 45-122, looked up): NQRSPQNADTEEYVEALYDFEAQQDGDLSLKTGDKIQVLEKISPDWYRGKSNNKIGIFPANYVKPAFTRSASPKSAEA

T9: Hof1, Q05080
T9 sequence (Q05080 590-669, looked up): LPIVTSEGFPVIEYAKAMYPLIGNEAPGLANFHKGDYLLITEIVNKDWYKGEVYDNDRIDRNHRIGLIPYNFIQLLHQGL

T10: Sla1-2, P32790
T10 sequence (P32790 60-140, looked up): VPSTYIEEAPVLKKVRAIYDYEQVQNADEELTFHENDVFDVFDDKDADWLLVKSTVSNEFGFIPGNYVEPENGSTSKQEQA

T11: Bbc1, P47068
T11 sequence (P47068 1-78, looked up): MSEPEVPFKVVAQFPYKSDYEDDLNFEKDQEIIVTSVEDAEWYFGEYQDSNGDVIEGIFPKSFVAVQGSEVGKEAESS

T12: Boi2, P39969
T12 sequence (P39969 32-116, looked up): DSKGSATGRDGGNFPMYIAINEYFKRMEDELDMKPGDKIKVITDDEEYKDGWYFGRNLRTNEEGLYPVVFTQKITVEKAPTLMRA

T13: Pin3, Q06449
T13 sequence (Q06449 53-122, looked up): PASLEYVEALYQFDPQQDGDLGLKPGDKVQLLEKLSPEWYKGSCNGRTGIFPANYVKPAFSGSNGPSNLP

T14: Lsb3, P43603
T14 sequence (P43603 385-451, looked up): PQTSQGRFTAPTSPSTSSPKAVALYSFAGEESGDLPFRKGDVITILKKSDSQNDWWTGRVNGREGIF

T15: Boi1, P38041
T15 sequence (P38041 1-86, looked up): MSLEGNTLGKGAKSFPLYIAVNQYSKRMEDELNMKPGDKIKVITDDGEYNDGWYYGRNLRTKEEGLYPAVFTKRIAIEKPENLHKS

T16: Hse1, P38753
T16 sequence (P38753 208-285, looked up): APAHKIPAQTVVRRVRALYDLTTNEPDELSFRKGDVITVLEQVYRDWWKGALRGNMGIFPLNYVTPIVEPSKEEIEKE

T17: Cdc25, P04821
T17 sequence (P04821 50-136, looked up): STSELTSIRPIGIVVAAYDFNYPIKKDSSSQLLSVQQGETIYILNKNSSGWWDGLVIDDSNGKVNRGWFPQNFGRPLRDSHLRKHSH

T18: Abp1, P15891
T18 sequence (P15891 535-592, looked up): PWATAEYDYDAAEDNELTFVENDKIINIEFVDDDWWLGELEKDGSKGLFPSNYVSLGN

T19: Bzz1-2, P38822
T19 sequence (P38822 568-633, looked up): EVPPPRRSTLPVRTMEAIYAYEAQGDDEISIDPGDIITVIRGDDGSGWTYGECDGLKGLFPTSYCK

T20: Lsb4, P32793
T20 sequence (P32793 402-468, looked up): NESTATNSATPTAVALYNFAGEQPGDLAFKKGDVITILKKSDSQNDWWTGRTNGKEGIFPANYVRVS

T21: Fus1, P11710
T21 sequence (P11710 432-512, looked up): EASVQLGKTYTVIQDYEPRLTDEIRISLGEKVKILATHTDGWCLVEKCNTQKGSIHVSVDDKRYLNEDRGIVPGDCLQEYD


Each binder was assayed against T1, Myo5, Q04439 (assay: SPOT array). Conditions: median of control spots 471.

| SPOT intensity | Binder |
| --- | --- |
| 0 | RRLRDKYKLPIVDAD |
| 0 | NFFRKKLGIPRKLKR |
| 0 | SRYRRPLTLLLLKPF |

The binders below were run against T2, Nbp2, Q12163 (assay: SPOT array). Conditions: median of control spots 357.

| SPOT intensity | Binder |
| --- | --- |
| 7 | RRLRDKYKLPIVDAD |
| 72 | NFFRKKLGIPRKLKR |
| 28 | SRYRRPLTLLLLKPF |

These binders were tested against T3, Cyk3, Q07533 (assay: SPOT array). Conditions: median of control spots 1451.

| SPOT intensity | Binder |
| --- | --- |
| 1 | RRLRDKYKLPIVDAD |
| 4 | NFFRKKLGIPRKLKR |
| 3 | SRYRRPLTLLLLKPF |

These binders were tested against T4, Bzz1-1, P38822 (assay: SPOT array). Conditions: median of control spots 4446.

| SPOT intensity | Binder |
| --- | --- |
| 0 | RRLRDKYKLPIVDAD |
| 0 | NFFRKKLGIPRKLKR |
| 0 | SRYRRPLTLLLLKPF |

Each binder was assayed against Rvs167, P39743 (assay: SPOT array). Conditions: median of control spots 2707.
Sequence of Rvs167, P39743 (P39743 419-482): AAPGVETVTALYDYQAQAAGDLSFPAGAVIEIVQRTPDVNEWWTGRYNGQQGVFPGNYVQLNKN

| SPOT intensity | Binder |
| --- | --- |
| 1 | RRLRDKYKLPIVDAD |
| 3 | NFFRKKLGIPRKLKR |
| 7 | SRYRRPLTLLLLKPF |

The binders below were run against T5, Pex13, P80667 (assay: SPOT array). Conditions: median of control spots 1341.

| SPOT intensity | Binder |
| --- | --- |
| 0 | RRLRDKYKLPIVDAD |
| 14 | NFFRKKLGIPRKLKR |
| 16 | SRYRRPLTLLLLKPF |

Each binder was assayed against T6, Bud14, P27637 (assay: SPOT array). Conditions: median of control spots 956.

| SPOT intensity | Binder |
| --- | --- |
| 26 | RRLRDKYKLPIVDAD |
| 43 | NFFRKKLGIPRKLKR |
| 15 | SRYRRPLTLLLLKPF |

These binders were tested against T7, Sla1-3, P32790 (assay: SPOT array). Conditions: median of control spots 5475.

| SPOT intensity | Binder |
| --- | --- |
| 34 | RRLRDKYKLPIVDAD |
| 58 | NFFRKKLGIPRKLKR |
| 15 | SRYRRPLTLLLLKPF |

What follows are binders tested against Bem1-2, P29366 (assay: SPOT array). Conditions: median of control spots 4347.
Sequence of Bem1-2, P29366 (P29366 139-227): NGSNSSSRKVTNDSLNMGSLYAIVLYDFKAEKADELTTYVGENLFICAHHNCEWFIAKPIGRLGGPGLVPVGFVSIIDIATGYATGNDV

| SPOT intensity | Binder |
| --- | --- |
| 2 | RRLRDKYKLPIVDAD |
| 13 | NFFRKKLGIPRKLKR |
| 10 | SRYRRPLTLLLLKPF |

The binders below were run against T8, Lsb1, P53281 (assay: SPOT array). Conditions: median of control spots 388.

| SPOT intensity | Binder |
| --- | --- |
| 48 | RRLRDKYKLPIVDAD |
| 234 | NFFRKKLGIPRKLKR |
| 7 | SRYRRPLTLLLLKPF |

The binders below were run against T9, Hof1, Q05080 (assay: SPOT array). Conditions: median of control spots 4086.

| SPOT intensity | Binder |
| --- | --- |
| 9 | RRLRDKYKLPIVDAD |
| 29 | NFFRKKLGIPRKLKR |
| 15 | SRYRRPLTLLLLKPF |

Each binder was assayed against Myo3, P36006 (assay: SPOT array). Conditions: median of control spots 468.

| SPOT intensity | Binder |
| --- | --- |
| 0 | RRLRDKYKLPIVDAD |
| 3 | NFFRKKLGIPRKLKR |
| 8 | SRYRRPLTLLLLKPF |

Each binder was assayed against GST (assay: SPOT array). Conditions: median of control spots 978.

| SPOT intensity | Binder |
| --- | --- |
| 0 | RRLRDKYKLPIVDAD |
| 0 | NFFRKKLGIPRKLKR |
| 0 | SRYRRPLTLLLLKPF |

The binders below were run against T10, Sla1-2, P32790 (assay: SPOT array). Conditions: median of control spots 712.

| SPOT intensity | Binder |
| --- | --- |
| 0 | RRLRDKYKLPIVDAD |
| 0 | NFFRKKLGIPRKLKR |
| 1 | SRYRRPLTLLLLKPF |

These binders were tested against T11, Bbc1, P47068 (assay: SPOT array). Conditions: median of control spots 796.

| SPOT intensity | Binder |
| --- | --- |
| 14 | RRLRDKYKLPIVDAD |
| 101 | NFFRKKLGIPRKLKR |
| 140 | SRYRRPLTLLLLKPF |

These binders were tested against Bem1-1, P29366 (assay: SPOT array). Conditions: median of control spots 4282.
Sequence of Bem1-1, P29366 (P29366 55-141): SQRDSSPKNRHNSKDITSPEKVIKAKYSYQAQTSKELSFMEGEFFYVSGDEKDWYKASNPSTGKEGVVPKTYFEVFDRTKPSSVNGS

| SPOT intensity | Binder |
| --- | --- |
| 0 | RRLRDKYKLPIVDAD |
| 1 | NFFRKKLGIPRKLKR |
| 0 | SRYRRPLTLLLLKPF |

What follows are binders tested against T12, Boi2, P39969 (assay: SPOT array). Conditions: median of control spots 1161.

| SPOT intensity | Binder |
| --- | --- |
| 0 | RRLRDKYKLPIVDAD |
| 2 | NFFRKKLGIPRKLKR |
| 0 | SRYRRPLTLLLLKPF |

The binders below were run against T13, Pin3, Q06449 (assay: SPOT array). Conditions: median of control spots 2171.

| SPOT intensity | Binder |
| --- | --- |
| 0 | RRLRDKYKLPIVDAD |
| 7 | NFFRKKLGIPRKLKR |
| 2 | SRYRRPLTLLLLKPF |

Each binder was assayed against T14, Lsb3, P43603 (assay: SPOT array). Conditions: median of control spots 406.

| SPOT intensity | Binder |
| --- | --- |
| 0 | RRLRDKYKLPIVDAD |
| 1 | NFFRKKLGIPRKLKR |
| 2 | SRYRRPLTLLLLKPF |

Each binder was assayed against T15, Boi1, P38041 (assay: SPOT array). Conditions: median of control spots 1162.

| SPOT intensity | Binder |
| --- | --- |
| 6 | RRLRDKYKLPIVDAD |
| 14 | NFFRKKLGIPRKLKR |
| 16 | SRYRRPLTLLLLKPF |

These binders were tested against T16, Hse1, P38753 (assay: SPOT array). Conditions: median of control spots 1727.

| SPOT intensity | Binder |
| --- | --- |
| 9 | RRLRDKYKLPIVDAD |
| 130 | NFFRKKLGIPRKLKR |
| 15 | SRYRRPLTLLLLKPF |

What follows are binders tested against T17, Cdc25, P04821 (assay: SPOT array). Conditions: median of control spots 969.

| SPOT intensity | Binder |
| --- | --- |
| 18 | RRLRDKYKLPIVDAD |
| 138 | NFFRKKLGIPRKLKR |
| 236 | SRYRRPLTLLLLKPF |

Each binder was assayed against T18, Abp1, P15891 (assay: SPOT array). Conditions: median of control spots 935.

| SPOT intensity | Binder |
| --- | --- |
| 18 | RRLRDKYKLPIVDAD |
| 99 | NFFRKKLGIPRKLKR |
| 37 | SRYRRPLTLLLLKPF |

These binders were tested against T19, Bzz1-2, P38822 (assay: SPOT array). Conditions: median of control spots 4538.

| SPOT intensity | Binder |
| --- | --- |
| 2 | RRLRDKYKLPIVDAD |
| 7 | NFFRKKLGIPRKLKR |
| 4 | SRYRRPLTLLLLKPF |

Each binder was assayed against T20, Lsb4, P32793 (assay: SPOT array). Conditions: median of control spots 397.

| SPOT intensity | Binder |
| --- | --- |
| 0 | RRLRDKYKLPIVDAD |
| 1 | NFFRKKLGIPRKLKR |
| 2 | SRYRRPLTLLLLKPF |

The binders below were run against T21, Fus1, P11710 (assay: SPOT array). Conditions: median of control spots 1200.

| SPOT intensity | Binder |
| --- | --- |
| 58 | RRLRDKYKLPIVDAD |
| 219 | NFFRKKLGIPRKLKR |
| 15 | SRYRRPLTLLLLKPF |

These binders were tested against Sho1, P40073 (assay: SPOT array). Conditions: median of control spots 1148.
Sequence of Sho1, P40073 (P40073 287-367): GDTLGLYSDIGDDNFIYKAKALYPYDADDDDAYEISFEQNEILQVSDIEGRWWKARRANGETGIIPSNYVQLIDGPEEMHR

| SPOT intensity | Binder |
| --- | --- |
| 19 | RRLRDKYKLPIVDAD |
| 107 | NFFRKKLGIPRKLKR |
| 78 | SRYRRPLTLLLLKPF |
